# Data taken from patent US11679121B2, “Morpholino oligonucleotides useful in cancer treatment” (United States Government As Represented By The Department …, priority 2018, dated 2023).
# Entries after “also recorded” stand apart in the source; their conditions may differ.
# Assays:
# MGMT [1] = experiment: Western blot of MGMT expression after ionizing-radiation-enhanced delivery of AMONs, without scrape-loading or transfection agents; assay type: cell-based, human
# Protocol: The ability of ionizing radiation to enhance the cytosolic delivery of AMONs in T98G glioma cell lines and suppress MGMT expression was assessed. T98 G cells were exposed to AMON SEQ ID NO: 2 alone, SEQ ID NO: 3 alone, or the combination of SEQ ID NO: 1, SEQ ID NO: 2 and SEQ ID NO: 3, one hour after exposure to 1 Gy of ionizing radiation. […] As with the use of scrape loading and lysosomal transfection agents, the inhibition of expression with radiation enhanced delivery of AMONS was transient, with peak inhibition at 3 days and restoration of MGMT expression by 7 days. Based on these findings a combination of sequences 1, 2 and 3 were used for further experiments.
# To determine the optimal timing for exposure to AMON with respect to exposure to radiation, T98G cell lines were exposed to AMONs 2 hours and 1 hour before radiation as well as 1 and 24 hours after radiation exposure (FIG. 2B). The best inhibition was observed when cells were exposed to AMON 24 hours after radiation. This time line was adopted for further experiments. Different tumor cell lines required different doses of radiation to enhance delivery of AMON. Knockdown could be achieved in T98G cell lines at 1 Gy while H460 and A549 cell lines required exposure to 6-12 Gy for best results with no inhibition at lower doses of ionizing radiation (FIG. 2C).
# Radiation delivery: cell culture: 10^6 cancer cells were exposed to different doses of radiation (0.5-12 Gy) at room temperature using a Philips gamma chamber (Philips Medical Systems, Andover, Mass.). After irradiation, cells were treated with mixtures of MGMT-morpholinos (SEQ ID NO: 1, SEQ ID NO: 2, SEQ ID NO: 3=1:1:1; v/v/v) at different time points and at a final concentration of 15 μM.
# (§1) Cell viability assay and western blot analyses: Cell viability and proliferation was measured using the WST-1 Proliferation Assay Kit from Chemicon International Inc. (Temecula, Calif.). Cells or tissues were harvested and then washed with ice-cold PBS twice before the addition of RIPA lysis buffer containing protease and phosphatase inhibitors. Protein concentration was quantified using the Bio-Rad method. Equal amounts of protein were loaded into each well and separated by 7.5 or 12% SDS-PAGE gel followed by transfer onto polyvinylidene difluoride membranes (BioRad, Richmond, Calif.). Membranes were blocked using 5% nonfat dry milk or 2% bovine serum albumin (BSA) in PBS-T. The blots were then incubated with primary antibodies (1:200-1:1,000) overnight at 4° C. Secondary antibody (1:5,000; Cell signaling technology, Danvers, Mass.) was incubated for 2 h at room temperature. Immunoblots were developed using the chemiluminescence detection system (Thermo Scientific, Waltham, Mass.) according to the manufacturer's protocol and autoradiography. Quantification of immunoblotting signal of respective proteins was performed using UN-SCAN-IT Gel software (Silk Scientific, Inc., Orem, Utah).
# MGMT [2] = experiment: Western blot of MGMT expression in tumor cell lines after scrape-loading or transfection-agent delivery of AMONs; assay type: cell-based, human
# Protocol: The ability of each of three AMONs (SEQ ID NO: 1, SEQ ID NO: 2, and SEQ ID NO: 3) to inhibit MGMT expression in tumor cell lines was assessed. Three MGMT expressing solid tumor cell lines (T98G Glioma, H460 and A549 non-small-cell-lung cancer cell lines) were transduced with AMONs using a scrape-loading technique (Partridge M et al, Antisense Nucleic Acid Drug Dev 6, 169-175 (1996); incorporated by reference herein). […] This was replicated in H460 and A549 NSCLC lines.
# […] transfection agents were also used to introduce the AMONs into the cells and produced similar results (FIG. 1B). MGMT silencing was not achieved when cells were exposed to AMONS without scrape-loading or liposomal transfection agents (controls).
# Cells were maintained at 37° C. and in an atmosphere containing 5% CO2. Three MGMT antisense oligonucleotide sequences: SEQ ID NO: 1-5′-[…]-3′; SEQ ID NO: 2-5′-[…]-3′; SEQ ID NO: 3-5′-[…]-3′ and one non-specific control sequence: SEQ ID NO: 4-5′-[…]-3′ were synthesized and purchased from Gene Tools, LLC (Philomath, Oreg., USA). Mouse anti-tubulin antibody (T9026) was purchased from Sigma (St. Louis, Mo., USA). Anti-MGMT (#2739), caspase 3 (#9662) and phospho-p53 (Ser15) (#9284) antibodies were purchased from Cell Signaling (Danvers, Mass., USA). Mouse anti-dynamin II (sc-166526) monoclonal antibody was purchased from Santa Cruz Biotechnology (Santa Cruz, Calif., USA).
# Delivery of MGMT-morpholino in vitro into the cancer cells: Scrape delivery: 10^6 cancer cells were seeded on a 10-cm culture plate. The culture plate was placed on a flat surface and the cells scraped off the surface with a sterile cell scraper. Different doses or combinations of MGMT-morpholinos were added to the cells. Scraped cell suspensions were pipetted up and down twice and transferred to another culture plate.
# Transfection agent delivery: 10^6 cancer cells were seeded in 10-cm culture plate. Cells were treated with transfection agent DharmaFECT (GE Dharmacon; Lafayette, Colo., USA) and MGMT-morpholinos mixture (1:1; v/v).
# as §1
# T98G = conditions: Yoshino A et al 2010; cited from earlier work
# T98G cells = experiment: Temozolamide cytotoxicity after radiation and AMONs (Western blot of phosphorylated-p53 and caspase 3); assay type: cell-based, human; conditions: for Susceptibility of cells to temozolamide (phosphorylated-p53, caspase 3): T98G, AMONs 1 day after 1 Gy, 75 or 150 μg/ml temozolamide two days later, lysates 1 and 4 days, FIG. 3
# Protocol: FIG. 3 is a flow chart of an experimental model that includes treatment of cells with radiation, morpholino oligonucleotides of SEQ ID NO: 1, SEQ ID NO: 2, and SEQ ID NO: 3, and 75 or 150 μg/ml temozolamide as indicated.
# MGMT expressing glioma cell lines such as T98G are known to be resistant to the cytotoxic effects of temozolomide (Yoshino A et al, Int J Oncol 36, 1367-1377 (2010); incorporated by reference herein). AMONs were administered 1 day after exposure of the T98G cells to 1 Gy of radiation and 75 or 150 μg/ml temozolamide administered two days after administration of the AMONs. Whole cell lysates were then collected 1 and 4 days after exposure to the temozolamide and a Western blot using antibodies specific for the indicated proteins performed.
# as §1
# MGMT gene = experiment: MGMT-gene methylation status of subcutaneous tumors by pyrosequencing; assay type: in vivo, human; conditions: after implantation, radiation or AMONs
# Protocol: Measurement of MGMT DNA methylation status: Subcutaneous xenograft tumor DNA was isolated using DNeasy Blood & Tissue Kit from Qiagen International (Germantown, Md., USA). In order to assure the quality and purity of DNA samples, the ratio of A260/A280 was determined and recorded samples was above 1.9. The percentage methylation status of MGMT DNA at CpG islands in samples were measured at using pyrosequening.
# MGMT [3] = experiment: Subcutaneous H460 xenograft tumors in athymic nude rats: local radiation plus iv AMON, Western blot of MGMT in tumor lysates; assay type: in vivo, human
# Protocol: Due to the inconsistent growth of intracranial T98G cell lines, subcutaneous H460 NSCCL tumors in athymic nude rats were studied. 2.5×10^7 H460 cells were subcutaneously injected in each of their hind limbs of 6 animals. When the tumor reached 10 mm in diameter, a single dose of 5 Gy of ionizing radiation was delivered to the tumor field. AMON was administered intravenously (iv) through the femoral vein 24 hours after radiation. Tumors were harvested 3 days after exposure to AMONs.
# Delivery of MGMT-morpholino in vivo: Female (200-250 g) nude (mu/rnu) and heterozygous (rnu/wt) rats were selected from the breeding colony maintained in the animal facility. For subcutaneous tumor model, a total of 2.5×10^7 cells were mixed (ratio 1:1; v/v) with Matrigel Basement Membrane Matrix (BD Biosciences, Bedford, Mass.), and the mixture was injected subcutaneously into both left and right hind legs. At d 7 after inoculation, right SQ tumor was exposed to single dose of radiation (5 Gy) with shielding the rest of body using a Philips gamma chamber (Philips Medical Systems, Andover, Mass.), and left SQ tumor of the same animal without radiation was served as control. A total of 30 mM MGMT-morpholinos SEQ ID NO: 1, SEQ ID NO: 2, SEQ ID NO: 3=1:1:1; v/v/v) was administered intravenously 24 h after irradiation. Tissues (SQ tumors, brain, liver, spleen and kidney) were harvested 3 days after morpholinos and subjected to further protein and DNA analysis.
# Cell viability assay and western blot analyses: Cell viability and proliferation was measured using the WST-1 Proliferation Assay Kit from Chemicon International Inc. (Temecula, Calif.). Cells or tissues were harvested and then washed with ice-cold PBS twice before the addition of RIPA lysis buffer containing protease and phosphatase inhibitors. Protein concentration was quantified using the Bio-Rad method. […] Quantification of immunoblotting signal of respective proteins was performed using UN-SCAN-IT Gel software (Silk Scientific, Inc., Orem, Utah).
# [4] = T98G cells, AMON one hour after 1 Gy ionizing radiation, lysates 3 and 7 days, FIG. 2A
# [5] = T98G cells, scrape-loading and liposomal transfection agents
# [6] = T98G cells, scrape-loading, FIG. 1A
molecule,measurement,setting,value
"5′-ATTCCTTCACGGCCAGTCCTT-3′ (morpholino, chemistry not fully specified) [SEQ ID NO: 3]",Inhibition of MGMT expression (Western blot),MGMT [1]; [4],inhibition of MGMT
same,Inhibition of MGMT expression (Western blot),"MGMT [2]; T98G cells, scrape delivery or lipofectamine/liposomal transfection, lysates 3 and 7 days after treatment, FIG. 1C",transient; also recorded: inhibition of MGMT
same,Time of best inhibition of MGMT expression,MGMT [2]; [5],3 days
same,Time of restoration of MGMT expression,MGMT [2]; [5],≤ 7 days
same,Inhibition of MGMT expression (Western blot),MGMT [2]; [6],most effective in silencing MGMT expression; also recorded: inhibition of MGMT expression
"5′-TTCCATAACACCTGTCTGGTT-3′ (morpholino, chemistry not fully specified) [SEQ ID NO: 2]",Inhibition of MGMT expression (Western blot),MGMT [2]; [6],most effective in silencing MGMT expression; also recorded: inhibition of MGMT expression
5′-TTTCGTGCAGACCCTGCTCTT-3′ (all phosphorodiamidate morpholino (PMO)) [SEQ ID NO: 1],Inhibition of MGMT expression (Western blot),MGMT [2]; [6],inhibition of MGMT expression
"Cn1nnc2c(C(N)=O)ncn2c1=O [temozolomide, reference compound]",Cytotoxic effects on MGMT expressing glioma cell lines,T98G,resistant
same,Dose dependence of enhanced cytotoxic effects,"T98G cells; T98G after 1 Gy and AMONs, 75 and 150 μg/mL",dose dependent
"SEQ ID NO: 2 and SEQ ID NO: 3: combination of morpholino oligonucleotides of SEQ ID NO: 2 and SEQ ID NO: 3 (chain 1 TTCCATAACACCTGTCTGGTT; chain 2 ATTCCTTCACGGCCAGTCCTT; morpholino, chemistry not fully specified)",Inhibition of MGMT expression (Western blot),MGMT [1]; [4],inhibition of MGMT
"combination of SEQ ID NO: 1, SEQ ID NO: 2 and SEQ ID NO: 3: mixture of MGMT-morpholinos SEQ ID NO: 1, SEQ ID NO: 2, SEQ ID NO: 3 = 1:1:1 v/v/v; used for experiments after b163 (nucleic acid, morpholino mixture, chemistry not fully specified, used for experiments after b163) chain 1: TTTCGTGCAGACCCTGCTCTT chain 2: TTCCATAACACCTGTCTGGTT chain 3: ATTCCTTCACGGCCAGTCCTT",Radiation dose required for best results (knockdown),MGMT [1]; H460 and A549 cell lines,6-12 Gy
same,Inhibition of MGMT expression at lower doses of ionizing radiation,"MGMT [1]; H460 and A549 cell lines, doses below 6-12 Gy",no inhibition
same,Radiation dose at which knockdown could be achieved,MGMT [1]; T98G cell lines,1 Gy
same,Inhibition of MGMT expression (Western blot),"MGMT [1]; T98G cells, 24 hours after exposure to the dose of radiation indicated, FIG. 2C",inhibition of MGMT
same,Inhibition of MGMT expression (Western blot),"MGMT [1]; T98G cells, AMON one hour after 1 Gy ionizing radiation, lysates 3 and 7 days, FIG. 2A, SEQ ID NO: 2, and SEQ ID NO: 3",inhibition of MGMT
same,Inhibition of MGMT expression (Western blot),"MGMT [1]; T98G cells, AMON one hour after 1 Gy ionizing radiation, lysates 3 and 7 days, FIG. 2A, listed as combination of sequences 1, 2 and 3",most effective at inhibiting MGMT expression
same,Time of exposure to AMON after radiation that gave the best inhibition,"MGMT [1]; T98G cells, tested 2 h and 1 h before, 1 and 24 h after radiation",24 h
same,Inhibition of MGMT expression (Western blot),"MGMT [1]; T98G cells, treated before or after exposure to 1 Gy radiation, FIG. 2B",inhibition of MGMT
same,Inhibition of MGMT expression (Western blot),"MGMT [2]; H460 NSCLC cells, transfection agents, 6 μM and 15 μM, FIG. 1B",inhibition of MGMT expression
same,Inhibition of MGMT expression (Western blot),MGMT [2]; [6],most effective in silencing MGMT expression
same,Inhibition of MGMT expression (Western blot),"MGMT [2]; T98G cells, scrape-loading, FIG. 1A, SEQ ID NO: 2, and SEQ ID NO: 3",inhibition of MGMT expression
same,Changes in MGMT-gene methylation status,MGMT gene,No significant changes
same,Inhibition of MGMT expression in tumors (Western blot),"MGMT [3]; H460 subcutaneous control tumors, systemic AMON but no radiation",not seen
same,Inhibition of MGMT expression in tumors (Western blot),"MGMT [3]; H460 subcutaneous tumors, 5 Gy to tumor 24 hours before iv AMON, harvested 3 days after",inhibition of MGMT expression was achieved
same,Inhibition of MGMT expression in tumors (Western blot),"MGMT [3]; H460 subcutaneous tumors, 5 Gy to tumor 24 hours before iv AMON, harvested 3 days after, listed as combination of morpholino oligonucleotides of SEQ ID NO: 1, SEQ ID NO: 2, and SE",inhibition of MGMT expression
same,"Susceptibility of cells to temozolamide (phosphorylated-p53, caspase 3)",T98G cells,susceptible to temozolomide
same,"Susceptibility of cells to temozolamide (phosphorylated-p53, caspase 3)","T98G cells; listed as morpholino oligonucleotides of SEQ ID NO: 1, SEQ ID NO: 2, and SEQ ID NO: 3",enhanced cytotoxic effects of temozolamide
